Substitutions are numbered along the chain they refer to.
T1: TNF-beta (human, UniProt P01374 35-205)
T1 construct: also called TNFβ; Tumour Necrosis Factor-beta
T1 sequence (looked up): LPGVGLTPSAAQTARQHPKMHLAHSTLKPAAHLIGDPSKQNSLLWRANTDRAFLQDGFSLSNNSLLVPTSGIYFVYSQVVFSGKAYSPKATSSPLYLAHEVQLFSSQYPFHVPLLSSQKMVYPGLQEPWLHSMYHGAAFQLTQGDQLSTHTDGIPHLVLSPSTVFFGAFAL

T2: Fas ligand (human, UniProt P48023 134-281, limits assumed)
T2 sequence (looked up): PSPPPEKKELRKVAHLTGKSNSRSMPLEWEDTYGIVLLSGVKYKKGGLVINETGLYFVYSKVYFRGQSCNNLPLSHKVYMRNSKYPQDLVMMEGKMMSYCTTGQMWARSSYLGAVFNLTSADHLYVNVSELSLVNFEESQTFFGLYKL

B1: I051C04 (scFv)
scFv: QVQLQQSGAEVKKPGSSVKVSCRTSGGTFSNYGLSWVRQAPGQGLEWMGGVIPISSTIKYGQKFQDRLTIAADDLTNTTFMELSSLRPEDTAVYYCARAATTSQKHNKYAYYFYGMDVWGQGTMVTVSSGGGGSGGGGSGGGGSAQSALTQPASVSGSPGQSITISCTGTSSDVGGYNYVSWYQQHPGKAPKLMIYEVSNRPSGVSNRFSGSKSGNTASLTISGLQAEDEADYYCSSYTSSSTLVFGGGTKVTVLG
notes: also called 1051C04
B2: I050A12 (scFv)
scFv: EVQLVQSGAEVKKPGSSVKVSCKASGDTFSHYAINWVRQAPGQGLEWMGGIIPTFNAVKYAQKFQGRATITADGSTSTAYMELNSLRSEDTAVYYCATAPYDLLTHYFHYFDYWGQGTMVTVSSGGGGSGGGGSGGGGSALSSELTQDPAVSVTLGQTVRITCQGDSLRSYYPSWYQQKPGQAPVLVIYPKNIRPSGIPDRFSGSSSGNTASLTITGAQAEDEADYYCNSRASSGNHYVFATGTKLTVLG
B3: I031F09 (scFv)
scFv: QVQLVQSGAEVKKPGASVKVSCTVSGDSFSRHGISWVRQAPGQGLEWMGWISVYNGDTKYAQKVQGRVTMTTDTSTNTVYMELRRLRSDDTAVYYCARDEGRDLLTGYYWPNFFDSWGRGTLVTVSSGGGGSGGGGSGGGGSALSYVLTQPPSASGTPGQRVTISCSGSRPNIGGNTVNWYQQLPGAAPKLLIYSNSQRPSGVPDRFSGSKYGTSASLAISGLQSDDEADYYCAAWDDSLTGPVFGGGTKLTVLG
B4: I031G11 (scFv)
scFv: B3 scFv with A154V, R161K
B5: I050B11 (scFv)
scFv: QVQLVQSGVEVKKPGASVKVSCKASGYTFSNHGISWVRQAPGQGLEWVGWISGHDDSTKYAQKFQGRVTMTADTSTSTAYIELRSLKSDDTAVYYCARPFYDTLTSYVFQYFDHWGQGTMVTVSSGGGGSGGGGSGGGGSALETTLTQSPDTLSLSPGERATLSCRASQSVTRGWVAWYQQKPGQAPRLLMYGTSRRATGVPDRFSGSESGTDFTLTISRLEPEDFAVYYCQQYATSPRTFGQGTRLEIKR
B6: I008C02 (scFv)
scFv: AVQLQESGPGLVKPSETLSLTCSVSGASMTTNKFYWSWIRQPPGKGLEWIGNINYSKSTNYNPSLKSRITISVDTSKNQLSLKLNSVTAADTAVYYCARHVRDYDILTGYYRGHYFDYWGQGTMVTVSSGGGGSGGGGSGGGGSQSVLTQPASVSGSPGQSITISCTGTSSDVGGYNYVSWYQQHPGKAPKLMIYEGSKRPSGVSNRFSGSKSGNTASLTISGLQAEDEADYYCSSYTTRSTRVFGGGTKLTVLG
B7: I061H01 (scFv)
scFv: QVQLVQSGGGLVKPGGSLRLSCAASGFTFSNAWMSWVRQAPGKGLQWVGRIKSKTDGGTTDYAAPVKGRFTISRDDSKNTLYLQMNSLKTEDTAVYYCTTFNPTYDILTGYYIGGYFQHWGQGTMVTVSSGGGGSGGGGSGGGGSQSVLTQPASVSGSPGQSITISCTGTSSDVGGYNYVSWYQQHPGKAPKLMIYEGSKRPSGVSNRFSGSKSGNTASLTISGLQAEDEADYYCSSYTTRSTRVFGGGTQLTVLG
notes: also called 1061H01
B8: I007H08 (scFv)
scFv: QVQLQQSGPGLVKPSQILSLTCAISGDSVASNGAAWNWIRQSPSRGLEWLGRTYYRSKWYVDYAVSVKSRITINPDTSKNQFSLQLNSVTPEDTAVYYCARDRYDILTGYYYYGMDVWGQGTMVTVSSGGGGSGGGGSGGGGSQSALTQPASVSGSRGQSITISCTGTTGDVGGYDYVSWYQQHPGKAPKLLIYGNSNRPSGVPDRFSASKSGNTASLTISGLQAEDEADYFCNTYAPPGIIMFGGGTKLTVLG
B9: I008A11 (scFv)
scFv: B8 scFv with N234S
B10: I008C03 (scFv)
scFv: QMQLVRSGGGVVQPGRSLRLSCAASGFTFSSYGMHWVRQAPGKGLEWVSVTYSGGNTNYADSVRGRFTISRDNSKNTLYLQMNSLRAEDTAVYYCAREGSYDILTGYYVGVGRMDVWGKGTLVTVSSGGGGSGGGGSGGGGSSELTQDPAVSVALGQTVRITCQGDSLRSYYTNWFQQKPGQAPLLVVYAKNKRPSGIPDRFSGSSSGNTASLTITGAQAEDEADYYCNSRDSSGNHVVFGGGTKLTVLG
B11: I018C02 (scFv)
scFv: QVQLQQSGSELKKPGASVIVSCKVSGYSLTKMSMHWVRQSPGEGLEWVGGIDPETRQPVYAQKFQGRVTITKDTSASAAYMELSSLGSEDTALYYCARATYDPLTGYSFDGFDIWGQGTLVTVSSGGGGSGGGGSGGGGSQSVLTQPASVSGSPGQSITISCTGTSSDVGGYNYVSWYQQHPGKAPKLMIYEGSKRPSGVSNRFSGSKSGNTASLTISGLQAEDEADYYCSSYTTRSTRVFGGGTKLTVLG
B12: I029D07 (scFv)
scFv: QVQLQQSGAEVKKPGSSVKVSCKASGYTFTKYTMHWVRQAPGQGPEWMGWINGGSGDTKYSRKFQGRVTITKDTSASAAYMELSSLGSEDTALYYCARATYDPLTGYSFDGFDIWGQGTLVTVSSGGGGSGGGGSGGGGSQSVLTQPASVSGSPGQSITISCTGTSSDVGGYNYVSWYQQHPGKAPKLMIYDVSKRPSGVPDRFSGSKSGNTASLTISGLQAEDEGDYYCSSYAGPSRVFGGGTKVEIKR
B13: I031C03 (scFv)
scFv: QMQLVQSGAEVRKPGSSVKVSCKASGGSFSSHVFSWVRQAPGQGLEWVGGITPKFATPNYAQKFQHRVTITADELTRTVFMDLSGLRSEDTAVYYCARGYDSSAFRAFDIWGQGTLVTVSSGGGGSGGGGSGGGGSAQSVLTQPPSVSAAPGQKVTISCSGSSSNIGNNYVSWYQQFPGTAPKLLIYDNNNRPSGVPDRFSGSKSGTSATLGITGLQTGDEADYYCGTWDRSLSVVVFGGGTKVTVLG
B14: I028A06 (scFv)
scFv: QVQLVESGGGLIQPGGSLRLSCAASGFSFGSYAMSWIRQAPGKGLEWVSTSTGRGGSTYYADSVKGRFTISRDNAKNSLYLQMNSLRAEDAAVYYCARGGDYDILTGLYYYGMDVWGKGTMVTVSSGGGGSGGGGSGGGGSSYVLTQPPSVSGTPGQRVTISCSGGRSNIGSNTVKWYQQLPGTAPKLLIYGNDQRPSGVPDRFSGSKSGTSASLAITGVQAEDEADYYCQSYDSSLRGSRVFGTGTKVTVLG
B15: I061E07 (scFv)
scFv: QVQLQQSGAEVKKTGASVKVSCKASGYIFADYYVHWVRQAAGQGLEWMGWINPNTGSTKYAQKFQDRVTMTRDTSIKTVYMELRRLRSDDTALYYCARATYDPLTGYSFDGFDIWGKGTMVTVSSGGGGSGGGGSGGGGSQSVLTQPPSASGTPGQRVTISCSGSSSNIGSNTVNWYQRLPGAAPQLLIYNNDQRPSGIPDRFSGSKSGTSGSLVISGLQSEDEADYYCASWDDSLNGRVFGGGTKLTVLG
B16: I022E02 (scFv)
scFv: QVQLVQSGAEVKKPGASVMVSCKASGYTFSTYAVHWVRQAPGQGLEWMGRINAGNGYTKYSQKFQGRVTITKDTSASAAYMELSSLGSEDTALYYCARATYDPLTGYSFDGLDIWGKGTMVTVSSGGGGSGGGGSGGGGSQSVLTQPASVSGSPGQSITISCTGTSSDVGGYNYVSWYQQHPGKAPKLMIYEGSKRPSGVSNRFSGSKSGNTASLTISGLQAEDEADYYCSSYTTRSTRVFGGGTKLTVLG

biological target: T3, membrane-bound B Lymphocyte Stimulator on U937 plasma membrane preparations (human, UniProt Q9Y275 1-285); assay: phage ELISA
T3 construct: Natural protein in plasma membrane fractions of the human cell line U937 coated on ELISA plates; also called U937 plasma membranes; U937 membranes

binding result | Binder
binds | B1
binds | B2
binds | B3
binds | B4
binds | B5

biological target: T4, TNF-alpha (human, UniProt P01375 77-233); assay: phage ELISA
T4 construct: also called TNFα; TNF-α
T4 sequence (P01375 77-233 limits assumed): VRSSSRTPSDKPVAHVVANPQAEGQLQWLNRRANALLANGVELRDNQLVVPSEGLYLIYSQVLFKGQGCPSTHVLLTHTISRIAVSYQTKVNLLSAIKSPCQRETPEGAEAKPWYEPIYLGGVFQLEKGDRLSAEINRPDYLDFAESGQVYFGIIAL

binding result | Binder
no binding | B1
no binding | B2
no binding | B3
no binding | B4
no binding | B5

biological target: T1, TNF-beta; assay: phage ELISA

binding result | Binder
no binding | B1
no binding | B2
no binding | B3
no binding | B4
no binding | B5

biological target: T2, Fas ligand; assay: phage ELISA

binding result | Binder
no binding | B1
no binding | B2
no binding | B3
no binding | B4
no binding | B5

biological target: T5, TRAIL (human, UniProt P50591 114-281); assay: phage ELISA
T5 construct: also called TNF-related apoptosis inducing ligand
T5 sequence (P50591 114-281 limits assumed): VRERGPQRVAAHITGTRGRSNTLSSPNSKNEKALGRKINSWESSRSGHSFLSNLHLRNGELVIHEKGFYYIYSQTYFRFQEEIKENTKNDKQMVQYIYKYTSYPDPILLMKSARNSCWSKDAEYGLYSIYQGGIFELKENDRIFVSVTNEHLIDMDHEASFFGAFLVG

binding result | Binder
no binding | B1
no binding | B2
no binding | B3
no binding | B4
no binding | B5

biological target: T6, B Lymphocyte Stimulator, soluble form (human) (human, UniProt Q9Y275 134-285, biotinylated with NHS-biotin where used as biotinylated B Lymphocyte Stimulator); assay: phage competition ELISA
T6 construct: Coated on plastic, captured on streptavidin plates, amine-coupled to a CM5 chip or free in solution, depending on the assay; also called BLyS; immobilized B Lymphocyte Stimulator

binding result | Binder
binds | B1
binds | B2
binds | B3
binds | B4
binds | B5

biological target: T7, biotinylated B Lymphocyte Stimulator, soluble form (human, UniProt Q9Y275 134-285, biotinylated with NHS-biotin, molar ratio 20:1 biotin:protein); assay: phage scFv, receptor binding inhibition on IM9 cells
T7 construct: also called bio-B Lymphocyte Stimulator; free B Lymphocyte Stimulator
Protocol: Fifty-five μl of each appropriate phage supernatant was added to each well and the final volume in each well was 65 μl. Plates were then incubated at room temperature for 30 minutes.
Plates were washed three times in PBST and three times in PBS, tapped dry and 50 μl of streptavidin-Delfia (Wallac) was added to each well at 1:1000 dilution in the Manufacturer's assay buffer. The plates were then incubated at room temperature for 1 hour and washed six times in Delfia wash solution (Wallac). After tapping the plates dry, 100 μl per well of Delfia enhancement solution (Wallac) was added. The plates were gently tapped to encourage micelle formation, incubated at room temperature for 10 minutes, and fluorescence read on a Wallac 1420 workstation at […].

binding result | Binder
binds | B6
binds | B7
binds | B8
binds | B9
binds | B10
binds | B11
binds | B12
binds | B13
binds | B14
binds | B15
binds | B16
